Reference: US7138236B1, “Interactions of ATM, ATR or DAN-PK with p53” (Kudos Pharmaceuticals Limited, priority 1997, dated 2006)
Square brackets hold non-standard residues; d marks the D form. pT = C[C@@H](OP(=O)(O)O)[C@H](N)C(=O)O

The substances below were run against Mdm-2 (Homo sapiens, UniProt Q00987) (assay: Mdm-2 binding of p53-derived peptides by ELISA analysis). Settings: peptides containing p53 residues 11 to 25, unphosphorylated or phosphorylated on Ser15 and/or Thr18.
Description: To test whether phosphorylation on Ser15 or Thr18 of p53 affects its interaction with Mdm-2, phosphorylated and unphosphorylated p53-derived peptides were generated and were assessed for Mdm-2 binding by ELISA analysis. The four peptides used contained p53 residues 11 to 25 (in the sequence (SEQ ID NO:11) NH2-SGSGEPPLSOETFSDLWKL-COOH; where the underlined sequence is that derived from p53) that were unphosphorylated (1); phosphorylated on residue equivalent to p53 residue Ser15(2); phosphorylated on residue equivalent to p53 residue Thr18(3); or phosphorylated on two residues, equivalent to p53 residue Ser15 and Thr18(4). […] We therefore conclude that phosphorylation on Thr18 of p53 has a dramatic effect on its interaction with […] and that phosphorylation of this site is likely to play a key role in regulating p53 responses in vivo.

Sequence of Mdm-2 (Q00987 whole entry, species assumed, the tested form may be a part): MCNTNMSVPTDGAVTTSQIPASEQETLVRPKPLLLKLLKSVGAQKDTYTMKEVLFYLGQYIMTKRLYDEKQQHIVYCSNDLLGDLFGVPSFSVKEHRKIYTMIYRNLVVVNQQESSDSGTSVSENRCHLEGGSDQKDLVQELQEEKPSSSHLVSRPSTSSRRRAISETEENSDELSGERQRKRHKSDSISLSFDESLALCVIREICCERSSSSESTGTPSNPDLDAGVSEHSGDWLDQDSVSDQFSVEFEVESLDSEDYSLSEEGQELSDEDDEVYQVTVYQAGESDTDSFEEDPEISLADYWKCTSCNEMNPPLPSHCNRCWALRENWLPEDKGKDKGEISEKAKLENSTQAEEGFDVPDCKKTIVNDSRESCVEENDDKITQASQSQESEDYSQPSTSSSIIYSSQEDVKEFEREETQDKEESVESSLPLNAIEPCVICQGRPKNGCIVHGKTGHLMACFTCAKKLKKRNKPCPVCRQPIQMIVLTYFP

Row | Substance | Mdm-2 binding of p53-derived peptides
1 | NH2-SGSGEPPLSOETFSDLWKL-COOH [peptide 1] (H-SGSGEPPLSQETFSDLWKL-OH; UniProt P04637 11-25, looked up, fragment) [peptide containing p53 residues 11 to 25, unphosphorylated] | occurred effectively
2 | NH2-SGSGEPPLSOETFSDLWKL-COOH [compound 4] | inhibited dramatically
3 | NH2-SGSGEPPLSOETFSDLWKL-COOH [peptide 2] (EPPLSQETFSDLWKL; phospho-Ser15; N-terminal SGSG linker; UniProt P04637 11-25, looked up, fragment) [peptide containing p53 residues 11 to 25, phosphorylated on residue equivalent to Ser15] | only impaired slightly
4 | NH2-SGSGEPPLSOETFSDLWKL-COOH [3] (H-SGSGEPPLSQE[pT]FSDLWKL-OH; SMILES CC(C)C[C@H](NC(=O)[C@H](CCCCN)NC(=O)[C@H](Cc1c[nH]c2ccccc12)NC(=O)[C@H](CC(C)C)NC(=O)[C@H](CC(=O)O)NC(=O)[C@H](CO)NC(=O)[C@H](Cc1ccccc1)NC(=O)[C@@H](NC(=O)[C@H](CCC(=O)O)NC(=O)[C@H](CCC(N)=O)NC(=O)[C@H](CO)NC(=O)[C@H](CC(C)C)NC(=O)[C@@H]1CCCN1C(=O)[C@@H]1CCCN1C(=O)[C@H](CCC(=O)O)NC(=O)CNC(=O)[C@H](CO)NC(=O)CNC(=O)[C@@H](N)CO)[C@@H](C)OP(=O)(O)O)C(=O)O; UniProt P04637 11-25, looked up, fragment) [compound 3, peptide containing p53 residues 11 to 25, phosphorylated on residue equivalent to Thr18] | inhibited dramatically
